# Article PMC9465349, “G protein–coupled receptor kinase phosphorylation of distal C-tail sites specifies βarrestin1-mediated signaling by chemokine receptor CXCR4” (The Journal of Biological Chemistry, 2022)
# B1: βarrestin1-GFP10 (natural protein, UniProt P49407 1-418, looked up)
# chain: MGDKGTRVFKKASPNGKLTVYLGKRDFVDHIDLVDPVDGVVLVDPEYLKERRVYVTLTCAFRYGREDLDVLGLTFRKDLFVANVQSFPPAPEDKKPLTRLQERLIKKLGEHAYPFTFEIPPNLPCSVTLQPGPEDTGKACGVDYEVKAFCAENLEEKIHKRNSVRLVIRKVQYAPERPGPQPTAETTRQFLMSDKPLHLEASLDKEIYYHGEPISVNVHVTNNTNKTVKKIKISVRQYADICLFNTAQYKCPVAMEEADDTVAPSSTFCKVYTLTPFLANNREKRGLALDGKLKHEDTNLASSTLLREGANREILGIIVSYKVKVKLVVSRGGLLGDLASSDVAVELPFTLMHPKPKEEPPHREVPENETPVDTNLIELDTNDDDIVFEDFARQRLKGMKDDKEEEEDGTGSPQLNNR
# notes: βarrestin1 (βarr1); plasmid a gift from Michel Bouvier; Gift plasmid; also called βarr1-GFP; βarr1-GFP^10; source: HEK293, transiently transfected (PEI), in live cells
# B2: STAM1 (signal-transducing adaptor molecule 1) tagged at the N terminus with Rluc8 (natural protein, UniProt Q92783 1-540, looked up)
# chain: MPLFATNPFDQDVEKATSEMNTAEDWGLILDICDKVGQSRTGPKDCLRSIMRRVNHKDPHVAMQALTLLGACVSNCGKIFHLEVCSRDFASEVSNVLNKGHPKVCEKLKALMVEWTDEFKNDPQLSLISAMIKNLKEQGVTFPAIGSQAAEQAKASPALVAKDPGTVANKKEEEDLAKAIELSLKEQRQQSTTLSTLYPSTSSLLTNHQHEGRKVRAIYDFEAAEDNELTFKAGEIITVLDDSDPNWWKGETHQGIGLFPSNFVTADLTAEPEMIKTEKKTVQFSDDVQVETIEPEPEPAFIDEDKMDQLLQMLQSTDPSDDQPDLPELLHLEAMCHQMGPLIDEKLEDIDRKHSELSELNVKVMEALSLYTKLMNEDPMYSMYAKLQNQPYYMQSSGVSGSQVYAGPPPSGAYLVAGNAQMSHLQSYSLPPEQLSSLSQAVVPPSANPALPSQQTQAAYPNTMVSSVQGNTYPSQAPVYSPPPAATAAAATADVTLYQNAGPNMPQVPNYNLTSSTLPQPGGSQQPPQPQQPYSQKALL
# notes: STAM1 (signal-transducing adaptor molecule 1); the plasmid holds 'the STAM1-coding region' in pcDNA3; New plasmid; Rluc8 fragment from pTRE-Tight-Rluc8 (Addgene 79844); also called Rluc8-STAM1; RLuc8-STAM1; source: HEK293, transiently transfected (PEI), in live cells; not shown: Rluc8, N-terminal, kept
# Assays:
# Conditions in all cases: partners not purified
# CXCR4-Rluc3 [1] = target: T1, CXCR4-Rluc3 (UniProt P61073 1-352); assay: FRET or BRET; BRET2 in live HEK293 cells coexpressing a GPCR tagged with Rluc (CXCR4-Rluc3, or GPCR-Rluc8; donor) and βarr1-GFP10 (acceptor); increasing concentrations of the receptor's agonist at 37 °C; vehicle or 1 μM Gö6983 (little effect, CXCR4)
# T1 construct: chemokine receptor CXCR4; plasmid a gift from Nikolaus Heveker; Gift plasmid; also called Rluc3-tagged CXCR4; source: HEK293, transiently transfected (PEI), in live cells
# T1 sequence (P61073 whole entry): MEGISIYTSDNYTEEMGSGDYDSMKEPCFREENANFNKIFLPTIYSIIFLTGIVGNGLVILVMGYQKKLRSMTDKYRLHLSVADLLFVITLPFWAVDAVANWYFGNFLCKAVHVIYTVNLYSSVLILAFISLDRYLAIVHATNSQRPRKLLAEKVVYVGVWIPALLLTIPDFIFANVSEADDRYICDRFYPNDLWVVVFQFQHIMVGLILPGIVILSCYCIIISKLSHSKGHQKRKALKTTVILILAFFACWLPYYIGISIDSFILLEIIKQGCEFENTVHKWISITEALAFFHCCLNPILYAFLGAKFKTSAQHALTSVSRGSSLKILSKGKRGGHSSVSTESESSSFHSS
# [2] = target: T2, NTS1-Rluc8 (neurotensin receptor 1) (UniProt P30989 1-418); assay: as above
# T2 construct: neurotensin receptor 1 (NTS1); 'the NTS1-coding region' amplified by PCR from the NTS1-Tango plasmid; New plasmid; source: HEK293, transiently transfected (PEI), in live cells
# T2 sequence (P30989 whole entry): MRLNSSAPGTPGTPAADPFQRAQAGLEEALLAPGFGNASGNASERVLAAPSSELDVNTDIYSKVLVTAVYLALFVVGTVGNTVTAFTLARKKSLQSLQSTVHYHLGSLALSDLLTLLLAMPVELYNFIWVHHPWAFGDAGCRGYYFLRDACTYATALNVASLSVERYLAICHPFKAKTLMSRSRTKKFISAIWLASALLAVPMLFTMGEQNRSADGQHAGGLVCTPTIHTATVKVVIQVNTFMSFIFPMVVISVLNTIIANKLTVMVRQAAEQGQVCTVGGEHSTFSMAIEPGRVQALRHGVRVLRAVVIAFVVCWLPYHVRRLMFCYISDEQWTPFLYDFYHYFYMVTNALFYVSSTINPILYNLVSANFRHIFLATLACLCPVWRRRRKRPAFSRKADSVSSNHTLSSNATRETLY
# CXCR4-Rluc3 [3] = target: T1, CXCR4-Rluc3; assay: FRET or BRET; as a13 for CXCR4-Rluc3 and βarr1-GFP, but in the presence of 30 μM GRK2/3 inhibitor compound 101
# βarrestin1-GFP10 [4] = target: B1; assay: FRET or BRET; BRET2 in live HEK293 cells coexpressing FLAG-NTS1, Rluc8-STAM1 and βarr1-GFP; increasing concentrations of neurotensin, 10 min, 37 °C
# βarrestin1-GFP10 [5] = target: B1; assay: FRET or BRET; BRET2 in live HEK293 cells coexpressing FLAG-AT1a, Rluc8-STAM1 and βarr1-GFP; increasing concentrations of angiotensin II, 10 min, 37 °C
EC50 of the agonist CXCL12 for the BRET response (vehicle) (CXCR4-Rluc3 [1]) [nM],potency (EC50) of the agonist neurotensin for the BRET response [2] [nM],EC50 of the agonist CXCL12 for the BRET response (with GRK2/3 inhibitor compound 101) (CXCR4-Rluc3 [3]) [nM],potency (EC50) of the agonist neurotensin for the BRET response (βarrestin1-GFP10 [4]) [nM],potency (EC50) of the agonist angiotensin II for the BRET response (βarrestin1-GFP10 [5]) [nM],Binder
0.3,0.13,7.79,–,–,B1
–,–,–,0.22,70,B2
